Results taken from patent publication US20120329711A1, “GLP-1 RECEPTOR AGONIST COMPOUNDS WITH A MODIFIED N-TERMINUS” (Nordisk A/S, priority 2009, published 2012).
Read-outs that look alike come from different tables or passages of the source.

Tests used:
[1] = target: T1, human GLP-1 receptor (Homo sapiens, UniProt P43220); assay: SPA displacement of [^125I]-GLP-1(7-36)NH2 from BHK membranes with the human GLP-1 receptor, 0.005% HSA (low albumin)
[2] = target: T1, human GLP-1 receptor; assay: SPA displacement of [^125I]-GLP-1(7-36)NH2 from BHK membranes with the human GLP-1 receptor, 2.0% HSA (high albumin)
[3] = target: Human Serum Albumin (human) (UniProt P02768); assay: shift of the GLP-1 receptor IC50 (SPA displacement of ^125I-GLP-1) between 2.0% and 0.005% HSA, which the filing takes as an indication of albumin binding
[4] = target: T1, human GLP-1 receptor
[5] = target: T1, human GLP-1 receptor; remark: listed apart in the source

For “N^9-{2-[2-(1H-Imidazol-4-yl)-ethylcarbamoyl]-2-methyl-propionyl}-N^ε26-{2-[2-(2-{2-[2-(2-{(S)-4-Carboxy-4-[10-(4-carboxy-phenoxy)-decanoylamino]-butyrylamino}-ethoxy)-ethoxy]-acetylamino}-ethoxy)-ethoxy]-acetyl}, N^ε37-{2-[2-(2-{2-[2-(2-{(S)-4-Carboxy-4-[10-(4-carboxy-phenoxy)-decanoylamino]-butyrylamino}-ethoxy)-ethoxy]-acetylamino}-ethoxy)-ethoxy]-acetyl}[Arg^34,Lys^37]GLP-1(9-37)-peptide”, the IC50 [1] was less than 40 nM, the IC50 [2] was less than 900 nM and the ratio [(IC50/nM) high HSA]/[(IC50/nM) low HSA] [3] was greater than 10. The EC50 of cAMP formation (AlphaScreen cAMP assay) [4] was less than 2.1 nM.
Substance “N^9-{2-[2-(1H-Imidazol-4-yl)-ethylcarbamoyl]-2-methyl-propionyl}N^ε26-[2-(2-{2-[2-(2-{2-[(S)-4-Carboxy-4-(17-carboxyheptadecanoylamino)butyrylamino]ethoxy}ethoxy)acetylamino]ethoxy}ethoxy)acetyl][Arg^34]GLP-1(9-37)-peptide” has an IC50 [1] of less than 40 nM, an IC50 [2] of less than 900 nM and a ratio [(IC50/nM) high HSA]/[(IC50/nM) low HSA] [3] greater than 10. The EC50 of cAMP formation (AlphaScreen cAMP assay) [4] was less than 2.1 nM.
“N^9-{2-[2-(1H-Imidazol-4-yl)-ethylcarbamoyl]-2-methyl-propionyl}-N^ε26-[2-(2-{2-[2-(2-{2-[(S)-4-Carboxy-4-(17-carboxyheptadecanoylamino)butyrylamino]ethoxy}ethoxy)acetylamino]ethoxy}ethoxy)acetyl][His^31,Gln^34]GLP-1(9-37)-peptide” was tested, and the IC50 [1] was less than 40 nM, the IC50 [2] was less than 900 nM and the ratio [(IC50/nM) high HSA]/[(IC50/nM) low HSA] [3] was greater than 10. It also gave an EC50 of cAMP formation (AlphaScreen cAMP assay) [4] of less than 2.1 nM.
Work on “N^9-{2-[2-(1H-Imidazol-4-yl)methylcarbamoyl]-2-methyl-propionyl}-N^ε36-(2-{2-[2-(17-carboxyheptadecanoylamino)ethoxy}ethoxy]acetyl)[Glu^30,Lys^36]GLP-1(9-37) Glu^38-peptide amide” yielded an IC50 [1] of less than 40 nM, an IC50 [2] of less than 900 nM and a ratio [(IC50/nM) high HSA]/[(IC50/nM) low HSA] [3] greater than 10. It also gave an EC50 of cAMP formation (AlphaScreen cAMP assay) [4] of less than 2.1 nM.
“N^3-{2-[2-(1H-Imidazol-4-yl)-methylcarbamoyl]-2-methyl-propionyl}-[2-(2-{2-[2-(2-{2-[(S)-4-Carboxy-4-(17-carboxyheptadecanoylamino)-butyrylamino]ethoxy}ethoxy)-acetylamino]ethoxy}-ethoxy)acetyl][Arg^17,Arg^20,Arg^33,Lys^38]GLP-1A(3-37)-peptide” was tested, and the EC50 of cAMP formation (AlphaScreen cAMP assay) [4] was less than 2.1 nM.
“N^9-[-{2-[2-(1H-Imidazol-4-yl)-ethylcarbamoyl]-2-methyl-propionyl}-N^ε18-[2-(2-[2-(2-[2-(2-((S)-3-[1-(19-Carboxy-nonadecanoyl)-piperidine-4-carboxyamino]-3-carboxypropionylamino)ethoxy)ethoxy]acetylamino)ethoxy]ethoxy)acetyl][Lys^18,Glu^22, Gln^34]GLP-1(9-37)-peptide” showed an IC50 [1] of less than 40 nM, an IC50 [2] of less than 900 nM and a ratio [(IC50/nM) high HSA]/[(IC50/nM) low HSA] [3] greater than 10. The EC50 of cAMP formation (AlphaScreen cAMP assay) [4] was less than 2.1 nM.
“N^9-[2,2-dimethyl-3-oxo-3-(pyridin-2-ylmethylamino)propanoyl], N^ε26-[2-[2-[2-[[2-[2-[2-[[(4S)-4-carboxy-4-[10-(4-carboxyphenoxy)decanoylamino]butanoyl]amino]ethoxy]ethoxy]acetyl]amino]ethoxy]ethoxy]acetyl], N^ε37-[2-[2-[2-[[2-[2-[2-[[(4S)-4-carboxy-4-[10-(4-carboxyphenoxy)decanoylamino]butanoyl]amino]ethoxy]ethoxy]acetyl]amino]ethoxy]ethoxy]acetyl]-[Arg^34,Lys^3]-GLP-1-(9-37)-peptide” showed an IC50 [1] of less than 40 nM, an IC50 [2] of less than 900 nM and a ratio [(IC50/nM) high HSA]/[(IC50/nM) low HSA] [3] greater than 10. For the same substance, the EC50 of cAMP formation (AlphaScreen cAMP assay) [4] was less than 2.1 nM.
In the case of “N^9-{2-[2-(1H-Imidazol-4-yl)-ethylcarbamoyl]-2-methyl-propionyl}N^ε26-{2-[2-(2-{2-[2-(2-{(S)-4-Carboxy-4-[10-(4-carboxy-phenoxy)-decanoylamino]-butyrylamino}-ethoxy)-ethoxy]-acetylamino}-ethoxy)-ethoxy]-acetyl}, N^ε37-{2-[2-(2-{2-[2-(2-{(S)-4-Carboxy-4-[10-(4-carboxy-phenoxy)-decanoylamino]-butyrylamino}-ethoxy)-ethoxy]-acetylamino}-ethoxy)-ethoxy]-acetyl}[Arg^34,Lys^37]GLP-1(9-37)Glu^38-peptide”, the IC50 [1] is reported as less than 40 nM, the IC50 [2] is reported as less than 900 nM and the ratio [(IC50/nM) high HSA]/[(IC50/nM) low HSA] [3] is reported as greater than 10. It also gave an EC50 of cAMP formation (AlphaScreen cAMP assay) [4] of less than 2.1 nM.
“N^9-{2-[2-(1H-Imidazol-4-yl)-propylcarbamoyl]-2-methyl-propionyl}-N^ε36-(2-{2-[2-(17-carboxyheptadecanoylamino)ethoxy]ethoxy}acetyl) [Glu^30,Lys^36]GLP-1(9-37)Glu^38-peptide amide” showed an IC50 [1] of less than 40 nM, an IC50 [2] of less than 900 nM and a ratio [(IC50/nM) high HSA]/[(IC50/nM) low HSA] [3] greater than 10. It also gave an EC50 of cAMP formation (AlphaScreen cAMP assay) [4] of less than 2.1 nM.
“N^9-{2-[2-(1H-Imidazol-4-yl)-ethylcarbamoyl]-2-methyl-propionyl}-N^ε26-{2-[2-(2-{2-[2-(2-{(S)-4-[4-(4-tert-Butyl-phenyl)-butyrylamino]-4-carboxy-butyrylamino}-ethoxy)-ethoxy]-acetylamino}-ethoxy)-ethoxy]-acetyl}, N^ε37-{2-[2-(2-{2-[2-(2-{(S)-4-[4-(4-tert-Butyl-phenyl)-butyrylamino]-4-carboxy-butyrylamino}-ethoxy)-ethoxy]-acetylamino}-ethoxy)-ethoxy]-acetyl}[Arg^34, Lys^37]GLP-1(9-37)-peptide” gave an IC50 [1] of less than 40 nM, an IC50 [2] of less than 900 nM and a ratio [(IC50/nM) high HSA]/[(IC50/nM) low HSA] [3] greater than 10. For the same substance, the EC50 of cAMP formation (AlphaScreen cAMP assay) [4] was less than 2.1 nM.
Work on “N^9-{2-[2-(1H-Imidazol-4-yl)-ethylcarbamoyl]-2-methyl-propionyl}-N^ε36-(2-{2-[2-(17-carboxyheptadecanoylamino)ethoxy]ethoxy}acetyl) (Glu^30,Lys^36)GLP-1(9-37) Glu^38-peptide amide” yielded an IC50 [1] of less than 40 nM, an IC50 [2] of less than 900 nM and a ratio [(IC50/nM) high HSA]/[(IC50/nM) low HSA] [3] greater than 10. For the same substance, the EC50 of cAMP formation (AlphaScreen cAMP assay) [4] was less than 2.1 nM.
“N^9-(5-oxo-5-phenylpentanoyl), N^ε26-[2-[2-[2-[[2-[2-[2-[[(4S)-4-carboxy-4-(17-carboxyheptadecanoylamino)butanoyl]amino]ethoxy]ethoxy]acetyl]amino]ethoxy]ethoxy]acetyl]-[Arg^34]-GLP-1-(9-37)-peptide” gave an IC50 [1] greater than 40 nM, an EC50 of cAMP formation (AlphaScreen cAMP assay) [5] greater than 8 nM and a ratio [(IC50/nM) high HSA]/[(IC50/nM) low HSA] [3] greater than 300.
